Test results published in patent publication US9474783B2, “HIP/PAP protein and derivatives thereof for use in treating cancer” (priority 2012, dated 2016).

What was measured:
PANC1 cells = experiment: In vitro pancreatic cancer cell line growth (cell density, optical density); type: cell-based, Human
Procedure: (§1) The MCF7 (Human breast adenocarcinoma) and PANC1 (Human pancreatic carcinoma, epithelial-like cell line) cell lines were obtained from LGC-Promochem ATCC.
(§2) Sub-confluent cultures (70-80%) were split using Trypsin/EDTA and collected in serum free culture medium. Cell concentration was determined using Trypan blue staining and a Mallasez counting chamber.
(§3) Briefly, 1,000 cells per well were seeded in 96 well-plates. Cells were maintained in DMEM medium complemented with 1% antibiotics (P/S), and cultured in a humidified atmosphere at 37° C. and 5% CO2.
(§4) Cells were maintained in culture for 1 to 3 days (1 plate for each day of analysis). For control of cell survival/growth and validation of the experiments, equivalent cultures were performed in the presence of Foetal calf serum (5%).
(§5) The effect of increasing concentrations of ALF-5755 ranging from 0 to 2000 ng/ml was investigated over time up to 72 hours. Results for the optimal concentration (2000 ng/mL) only are presented below.
(§6) For each time point (24, 48, and 72 hours), 60 minutes prior to cell proliferation measurement, each plate received 10 μL of cell proliferation reagent per well.
(§7) The absorbance of the samples was measured against a background control using a 96-well plate reader at 450 nm with a reference wavelength of 690 nm.
(§8) Raw data are expressed as optical density.
(§9) Two-way ANOVA were performed to study ALF-5755 concentration incidence on cell growth and cell growth over time for each condition of culture (+/−ALF-5755 and +/−doxorubicin). Post-hoc Bonferroni were applied to reveal effects of ALF-5755 concentration at each time point, if any.

MCF7 cells = experiment: In vitro mammary cancer cell line growth (cell density, optical density); type: cell-based, Human
Procedure: as §1, §2, §3, §4, §5, §6, §7, §8, §9

[1] = tested on: DHDK12 cells (liver metastases of colorectal cancer); experiment: In vivo model of liver metastases of colorectal cancer (tumor area after partial hepatectomy); set-up: species or system BDIX rat; settings: 0.5 mg/kg single injection; for ratio of tumor liver area to total liver area: 14 days after treatment
Procedure: DHDK12 cell line was derived from liver metastatic cells developed by BDIX rats after 1,2-Dimethylhydrazine) intoxication (chemically-induced cancer). Therefore, all experiments were performed in BDIX rat, the syngenic corresponding strain.
Cells were expanded in vitro in a medium composed of 50% DMEM and 50% F12 (Invitrogen Gibco, Pailsey, GB) complemented with foetal calf serum (10%) and a combination of antibiotics (1% penicillin/streptomycin). Absence of mycoplasm contamination was controlled.
At day 1 of the experiment, rats were anesthetized with isofluran gas. After laparotomy they received 20 millions of DHDK12 cells.
At day seven after the injection of cancerous cells, when the tumor was already implanted, two types of hepatectomies were performed: either 30% or 70% of the liver was resected.
The control group was composed of animals receiving either the equivalent volume of vehicle or no injection.
Fourteen days after hepatectomy and treatment, animals were sacrificed. Serial sections of complete liver were performed for each animal (millimetric sections, the number of sections depending on the liver size and morphology). The tumor expansion was assessed by quantifying in square pixels (pixel^2) the area of each cancer cells nodule. The complete area of each section was also recorded and a ratio of the nodule/total area was calculated. Analyses were performed with Adobe Photoshop CS3 software.
Depending on the experiment, one-tailed t-test or two-tailed Mann-Whitney tests were performed to quantify the effect of ALF-5755 on nodule expansion. Area of nodules was expressed as a percentage of total liver area.

[2] = tested on: PyMT cells (primary mammary carcinoma); experiment: In vivo model of primary mammary cancer (tumor weight, survival)
Procedure: PyMT (Polyoma middle T) cell line was derived from a primary mammary carcinoma induced by PyMT oncogene activation in FBV mice. Therefore, all experiments were performed in FBV mice, the syngenic corresponding strain.
PyMT mice were sacrificed at 12/13 weeks when presenting a large tumoral mass. The tumour was dissected and cells were dissociated mechanically in DMEM/Glutamax medium and then filtrated. Dead cells were eliminated by centrifugation then viable cells were frozen in aliquots. For tumour implantation in FBV mice, appropriate number of aliquots cells was thawn.
At day 1 of the experiment, female mice received 1 million of PyMT cells, within the 8th mammal in the adipose tissue. Cells were injected as a solution in PBS (0.05 ml total pre-warmed at 37° C.).
Alzet pumps were implanted in the back of the mice, at the time of PyMT cell injection (experiment 1) or after tumor implantation, when doxorubicin treatment started (experiment 2). The pumps continuously delivered either 43.2 μg of ALF-5755 or vehicle per day for a period of 28 days.
Animals started to receive doxorubicin at the time when tumor was detected (15 days after PyMT cells injection for both, ALF-5755 and Vehicle groups) by intra-tumor injection. Animals receive during four weeks, a weekly dose of 1 mg/kg that was known to induce tumor cell-death.
At the end of doxorubicin treatment (6 weeks after the beginning of the procedure), animals were sacrificed.
The weight of the tumors was compared between the two groups by mean of non-parametric one tailed Mann whitney test. Survival was compared by mean of one-tailed exact Fischer test.

COc1cccc2c1C(=O)c1c(O)c3c(c(O)c1C2=O)C[C@@](O)(C(=O)CO)C[C@@H]3O[C@H]1C[C@H](N)[C@H](O)[C@H](C)O1 [doxorubicin, reference compound]
EC50 (PANC1 cells; Homo sapiens, PANC-1, PANC1 cells at 72H): 2.5 µM | reduction of the cell growth (PANC1 cells; doxorubicin 2.5 μM, effective at 48 hours post-plating, maintained at 72 hours): about 50% | EC50 (MCF7 cells; Homo sapiens, MCF7 cells at 24H): 75 µM | reduction of the growth of MCF7 cancerous cells (MCF7 cells; doxorubicin 75 μM, 24 hours post-plating, maintained at 72 hours): about 50%

B1: ALF-5755 (protein, listed as Homo sapiens)
chain: MEEPQRELPSARIRCPKGSKAYGSHCYALFLSPKSWTDADLACQKRPSGNLVSVLSGAEGSFVSSLVKSIGNSYSYVWIGLHDPTQGTEPNGEGWEWSSSDVMNYFAWERNPSTISSPGHCASLSRSTAFLRWKDYNCNVRLPYVCKFTD
ratio of tumor liver area to total liver area ([1]; after 30% partial hepatectomy, control ratio 0.14): 0.05 | decrease of tumor/total liver area ratio versus controls ([1]; after 30% partial hepatectomy, versus non-injected controls, p=0.022): about 60% | ratio of tumor liver area to total liver area ([1]; after 70% partial hepatectomy, control ratio 0.29): 0.15 | decrease of tumor/total liver area ratio versus controls ([1]; after 70% partial hepatectomy, versus vehicle, p=0.0026): about 50% | additional decrease of cell density in combination to doxorubicin (PANC1 cells; ALF-5755 2000 ng/mL + doxorubicin 2.5 μM versus doxorubicin alone, 24 hours post-plating): up to 22% | maximum additional reduction in cell density in combination to doxorubicin (MCF7 cells; ALF-5755 2000 ng/mL + doxorubicin 75 μM versus doxorubicin alone, 72 hours): 33% | influence on the doxorubicin effect on cell density (MCF7 cells; ALF-5755 at any of the tested concentrations (0 to 2000 ng/ml) with doxorubicin 75 μM): did not compromise the doxorubicin effect | deaths during the experiment ([2]; exp 1, ALF-5755 infusion with doxorubicin, n=3): no death observed | tumor weight at day 45 after implantation ([2]; exp 1, infusion 43.2 μg per day for 28 days from implantation, with weekly intra-tumor doxorubicin, control 1.1±0.2 g, P=0.059): 0.63 ± 0.12 g | deaths during the course of the experiment ([2]; exp 2, doxorubicin treated animals (1 mg/kg weekly intra-tumor for 4 weeks), same as group without doxorubicin): exact same result | deaths during the experiment, in total ([2]; exp 2, groups with and without doxorubicin pooled, n=14, placebo 6 of 14 died, P=0.008): none | deaths during the course of the experiment ([2]; exp 2, infusion 43.2 μg per day for 28 days from tumor detection, group without doxorubicin, placebo 3 of 7 died): no death was observed
